This passage reports stoichiometry N results from article doi:10.1101/2024.10.21.619395.

As usually defined, the stoichiometry N is a count of units in the complex or per binding partner.

This assay addresses G protein-coupled bile acid receptor 1 (GPBAR1), full length, with N-terminal FLAG and BRIL (human) (UniProt Q8TDU6). Nature of the assay: mass photometry.
Sequence of UniProt Q8TDU6 (Q8TDU6 whole entry): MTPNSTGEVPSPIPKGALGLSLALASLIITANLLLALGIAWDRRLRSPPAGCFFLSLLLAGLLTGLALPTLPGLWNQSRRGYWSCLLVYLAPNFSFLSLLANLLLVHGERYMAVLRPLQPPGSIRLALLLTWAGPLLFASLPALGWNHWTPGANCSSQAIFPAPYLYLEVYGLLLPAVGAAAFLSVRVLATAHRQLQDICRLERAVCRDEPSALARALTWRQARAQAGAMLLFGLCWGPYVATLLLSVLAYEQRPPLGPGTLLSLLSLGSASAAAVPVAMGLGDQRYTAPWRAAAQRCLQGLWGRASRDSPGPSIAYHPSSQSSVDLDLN

As to “Heterotrimeric Gs (Gαs, Gβ1, Gγ2) (from UniProt P63096 1-18; P63092 16-394; P62873 2-340; P59768 1-71) (complex)”, the stoichiometry N turned out to be 1.
